{"source": "a protein production outcome set (Wang et al. 2014)"}
{"test": "label from the status in PepcDB records"}
{"sequence": "MNAYSQSLAPANTPLRETFSLDGTWEFRHETDRAWRHAKVPAHWQACFEDLAVSFGSATYRRTFTLPAEWSAREIAIRFGAVSDLATVSINGTEIGRHEGGYLPFEFVIPPALLKAENTVEVLACLPDAYRDESGADFAEIPHGKQSWYGPQGGIWQSVLIEARDPAHISSLRLDPIWPEARLDLKARFASMVAGSLKIEIIGPQGMPVFTGNIPAAGNTLDHSIQLDSVAPWSPDSPNLYTITTILSADGVEIDSRQESFGFRRFEAKDGFLHLNGKPLYLRAALDQDYYPDGFGAPPSLDLLEDQLRKAKAMGLNCLRCHIKVPDPRYYEVADRLGMLIWSEIPNIETFTPASAERLRTTMEGILARDGNHPSIVIWTLINEDWGTRLREAAEQRQWISDMVDWLRVEDPLRLVVDNSACFPNVHVKTDINDYHFYRTAVDRREEWDTLCREFAGNADWTFSTEKEAVRTRKEPLVLSEFGVWGLPDPARLREKNGRDPWWMAYGATWADGTALPQGIEARFRELALEKVFGDLGRFIEKVQWYQYMNLKYEIEVIRTHAPIGGYVITELTDVHWEGNGLMDMARNPRVFAKALPAVNSDIVIAPGAARHAVYEGQTASFDIKVSSGGTALPEGSRLVWEFGAEKGEIPLPAMAPMQVHNAPITTTADAVPVPAIQKARFQVVSPDGSVLSQNFETLAVYGKRDALPPIRFASNDDGISERLSALGHVSVSPHEADVFITKDIDADRVEAIHSGQRVLQIVDKDPGRLRDDAPPRDGPMSIEIDPGAGGMVSGPYFSFPGYNLVNRHKSIWRGDWVGNFSWLRRDGVFAHVPGGPLFDLSFTGVAPHQVMTGLRPWEFQGRVYAGVVIGWVHKPAAFIIEKRLGRGKLVATTFRLHQEAPDVDPLATALYDGLFALATRP", "protein production": "failed"}
{"sequence": "MNAYYIQDRLEAQSWARHYQQIAREEKEAELADDMEKGLPQHLFESLCIDHLQRHGASKKAITRAFDDDVEFQERMAEHIRYIVETIAHHQADIDSEV", "protein production": "failed"}
{"sequence": "MNCIPQYYKNRVCLNVLAGSIKNAKEVYDACDGHVLIGVLSKNYSTVEAAIEDMKKYSKEIDNAISVGLGAGDPNQSNMVSQISKELQPQHINQVFTGVATSRALLGQNYSIINGLVSPTGKPGFVKISTGPLSSKEKDGIVPIETAIAMMKDMGGSSIKFFPMGGLKTKDEYIEVAKACAKHNFYLEPTGGIDLDNFKEIVQIALDAGVEKVIPHVYTSIIDKETGETKVEDIGVLYKIMKELLG", "protein production": "not failed"}
{"sequence": "MNCRKTALLKTGRVARLVLCSAMLGAAIPTMALAIGGASGAHVDYQVQGKLGEVIMNPYDIAPLTAIIKNGGYVLKDVTVRIVPKKDGQEIKYQVANKHLLTHGGIPVFGMYPDYVNTVEVEYSRLYNGKWEQAKESYTLYTPPVYTEPNATKTQKAALFSGADVKKVDKKFSDRLYFVNNFLHKAGKGTRAVWNNPTGGALEWNYYPQNFIVDTKGEVRWYMNANPIYDLKSIYNAGVMMGFKQNNDGAMSWGFGQRYVKYDIMGKEVFNRELPAGYNDFSHSMDNSPNGNYFLRVGSSNLKRADGKNVRTVRDVIIEVDPSSGLVQDEWRLFDILDPYRDVNFKVLDQGAVCLNIDASKAGHTMSAEDLAKQDANDKFGDIVGVGPGRNWAHVNSVDHDAEDDSIIISSRHQSAVIKIGRDKQIKWIMGSPEGWKKEYQGKLLTPVDSKGNKIECEAGGSKCPGYENDEGGFDWTWTQHTAFKIDSKSKGDIIYVSVFDNGDSRGMEQPALPSMKYSRAVIYKIDQKKMTVEQIWEFGKERGNGWYSPVTSLTEYQTDKDSVFVYSATAGADFDINTGAFKTDPNPYIMEFNYGSKEPAVEIQLKDTTGYQAMPFSVDKAFTK", "protein production": "failed"}
{"sequence": "MNDALHIGLPPFLVQANNEPRVLAAPEARMGYVLELVRANIAADGGPFAAAVFERDSGLLIAAGTNRVVPGRCSAAHAEILALSLAQAKLDTHDLSADGLPACELVTSAEPCVMCFGAVIWSGVRSLVCAARSDDVEAIGFDEGPRPENWMGGLEARGITVTTGLLRDAACALLREYNACNGVIYNARCGVHK", "protein production": "not failed"}
{"sequence": "MNDHTAAIAAHFDQLAPNLDRWRRRNRTYYRDLEKLHRFWIPTGSRVLQVGSGLGDLLATVEPSFGIGIDVSPQAVAIAQQRHPQLQFHCLAAEELTPEAIGNPEPFDAIILTGVLSYLTDIQVVLEQLQAFCHPRTRLILGFHNFLWQPLLTAAEKVGQRSPQPPESWLGMQDVLNLLTLTGYEPIKQGRRFLLPRQIPLLTGWINRWISPLPVIEHLALTNYVIARPLAQPRSQPTVSVIVPARNEAGNIAAAVERLPELGAETELIFVEGHSRDQTWETIEQTVAEYQGPLKLLACRQTGKGKADAVRLGFDKASGDILMILDADLTVQPEDLGHFYRAIASGRGEFINGSRLVYPRSRLAMPGLNTLANRTFALIFSFLLGQPLKDTLCGTKVLWKTDYDRVAAGRKYFGDFDPFGDFDLLFGAAKLGLEIVEVPVRYQERSYGSSNIAHVREGLILARMCLYAAGKLKFPH", "protein production": "failed"}
{"sequence": "MNDIILKSLSTLITEQRNPNSVDIDRQSTLEIVRLMNEEDKLVPLAIESCLPQISLAVEQIVQAFQQGGRLIYIGAGTSGRLGVLDASECPPTFGVSTEMVKGIIAGGECAIRHPVEGAEDNTKAVLNDLQSIHFSKNDVLVGIAASGRTPYVIAGLQYAKSLGALTISIASNPKSEMAEIADIAIETIVGPEILTGSSRLKSGTAQKMVLNMLTTASMILLGKCYENLMVDVQASNEKLKARAVRIVMQATDCNKTLAEQTLLEADQNAKLAIMMILSTLSKSEAKVLLERHQGKLRNALSK", "protein production": "not failed"}
{"sequence": "MNDLKRLPYEPVKGLLPRPAVGTSERVITLPEPDRTSGMPLMGTLWLRKSTREFDQQPLPLKQLSELLWAAAGVNRSLGGGRTAPSPYGETVIDVYVALPAGLYRYDPVHHCLELKRAADLRSMTGYQDFVGMAPLDLVFVANHGRMQEMPPKLRETFSAAAAGAMAENAYLYCASAGLGAVVRGWLNRRQLAEHMSLNEDEEPILSQTIGRAASHVTTTQA", "protein production": "not failed"}
{"sequence": "MNDNVLRYIKRVFNLITILGFVATIVGGIYLWRLGAFQNQAVLQQLIVAHRFLGPLIFLCMQILQVIVPIIPGGITMAAGVMIFGPVWGFVYNYFGIVAGSFLLFHFGKKYGSSLAKTFVKEKTYNKYMAWLDKGQKRFNIVFALLILSPIAPDDALVLIASQTKMSWKFFTWSILLCKPLPILLYSYLLIFGGDLLGHIL", "protein production": "failed"}
{"sequence": "MNDPQKLCDVNFFRPRKGYMTGEVAIIAAVLVGWAVANFGFQGVLALLAQSPDGEGILTRLTFLSFPWHFWFTGQFLPLWFIILCVLFNIYIDRHTEQHSRRRDRSHD", "protein production": "failed"}
{"sequence": "MNDQELRAYLSQAKTIAVLGAHKDPSRPAHYVPRYLREQGYRVLPVNPRFQGEELFGEEAVASLLDLKEPVDILDVFRPPSALMDHLPEVLALRPGLVWLQSGIRHPEFEKALKEAGIPVVADRCLMVEHKRLFRGPLPL", "protein production": "not failed"}
{"sequence": "MNDRMDPPPPRIEDILPHRGSMLLLAHVDTWDDETLRASAHVDPTAWYADPEGAMPAWFGIELMAQAIAAHVGLLSMREGNPARPGVLLGSRKYEAHAPAFAPAQPLSIAVQEVLRSTEGHGAYACTIAAGGRDLAQAVIKVYQPTDFQAFIEGSFAS", "protein production": "failed"}
{"sequence": "MNDTLLTTYTLAEGLHWLDLIGVLAFAMSGALLGVRKRFDLFGVLVLGAVTAVGGGAIRDSLTGQTPPLFLRDETYLWTALLGALLAFAFGERLARFERTLSLFDSAGLALFATSGALGAIKIGLGPLGVVFAGMLSGVGGGIIRDLIANEVPEVMYRRDQLYATAAAAGAGAVWLLAPHFTPFQAQAGGALLVLFLRWVSRRQWVRLPVRRLPE", "protein production": "failed"}
{"sequence": "MNEEKQQELLISVIITNYNYDQFIDQAIESVLSQTYYNFELIIVDDGSTDNSRDVISSYTDSRIKALVKNNGGQASAFNAGFEQANGEIICFLDSDDWWKPEKLETIIRWHYFINKDYAIFQHVLDVWYEGKTRPYKHILPSGDCFAEMKKVKKLDFFVPTSGLSFPKKILDRIFPIPIKFIIAADSYIMRTACVFNMVYSIPKSLGFYRQHDNTVFLNPDFDLQPFLKEILIPELNQFYQKYRINYQIEISDYNFNERKKNKKQKIFEYLKKVFFLEHHHHHH", "protein production": "failed"}
{"sequence": "MNEFMEPLDRISAETLGHYERNAEAFFEGTRDHDVSQNIAALLSHIRTEPPFTVLDFGCGPGRDLKAFTELGHRAVGLDGAFRFVEMARDYSGCEVWHQDFLKLDLPEEHFDGIFANATLFHVPSRELPRVLGELRAALKPEGVLFASNPRGRNEEGWNRGRYGVYHDLDTWRRFLTSAGFLELEHYYRPAGLPRDQQPWLASVWRRTLEHHHHHH", "protein production": "not failed"}
{"sequence": "MNEIITWILIVICLTQSAVFSGLTIGIFGLGRLRLEIEAEANNKNAIKILQVRRDSNFLLTTLLWGNVGVNVLIAQLTDSVMAGTFAFLFSTFGITCFGEIMPQAYFSRNALDIGAKLTPLVRFYQMLLYPVAKPTALVLDWWLGREKLELFREQAMRIMLEKHIESGKTDIGTFEGIGALNFLSIDDVSISDEGSIIDSRSIISLPVENNRPVFPPFNREPSDPFLQKIEASGKKWVIITSPENEPVMVLDADGFLRDAVYKKGPFLPLIYCHFPVVVKSPETRLEKVIRQFKVYPQYPEDDVIDQDLILYWGEEKRIITGSDILGRLLRGIVVECELGSGCEIPVPPSQPGFVRRTAFRRGKKKEIENLKRK", "protein production": "not failed"}
{"sequence": "MNEISVVLPAYNEEENIQKLVKRWQQLCKDLKYKYELSLNIFVIDDGSKDKTEVIGRELERKYDNFYLIKHDKNKGLGEAINTGIKYVMEKRSDSKYVCIMDCDNTQDPRYVFSMIEKMEKTDVVIASRYQKGSCVKGVPFFRLTASYGARFVYTIFLGVKNVRDYTCGYRLYRTSALKTAFKVFGESFIEESGFTCMVELLYKLNICGAVFKEVPFTLRYDFKGGVSKMKVLITAINSVKLTLRLKKIRKGVEPVLEDLEHHHHHH", "protein production": "failed"}
{"sequence": "MNEKSFNYDFSVIMPIYNVELYLTEAIESIINQTIGFENIQLILVNDDSPDKSEIICKEYAQKYPNNIVYAKKQNGGVSSARNYGLKYAEGRYIQFLDPDDLVSEGTFENVLNFFDEHKNEIDIVAIPIFFAEGRTGEHNLNNKFSSTRILDVEKEPHHILTHCCSTFIKKDALKNIRFDENCKIGEDAKLVNLIISQKKKYGLVKEAKYHYRVREDGSSAMQTAKANKNWFNHSLITFSKNLIDIIKNHEQKIPLFLQYMVMHDLKWKLLIKDISETPLDENEYSEFLTLIREVLSYIDDDVIIETKSVSHFYLYHALKIKHGENYSRYVYERETEQDYYLYREGKIVSKLSDQTLTIEILEENEDSIHIEGFWSSLFNSKGFKFYAKIGETKIKAKNIKRQHNDYISLGEVIKKYPGFSIDIPKGHLADNHHIEFFITKGKKRKLTKLRFFKYSGLSNDLYNTYVAKKDYIFYYNYKKLMFKKNNFKNRFIKEFRFLKSLHKSGEKSKKRKSAIKKALMARMVHHVFTIFNRKPVWLFIDRQDKADDNAEHLFKYAINKNDGVKKYFIIKKDSKDYDRIKKYGKVIPYRSFRHKILTLSSSKVISTHADIWVVNPFFNMEIYFRDLFNFEFIFLQHGITMADHSEWLNKYNKNIKLLVTSAKPEYRSIVKGNYNYKKENILLGGFPRYDNLKKSEGEKQLLIMPTWRKDIVLPKDQAKGVRPYNPKFKDSEYFSRYNALINDERLIEFAKKNNYKITFFPHPDIQQQIVDFEKHDYVEFADYNSSYQMLFNSSNIMITDFSSVAFDFAYEKKPVIYYQYEKSYHFKLDYYDYKKMGFGDVLENHNSLVDKVIYYMKNNSRMEDKYRKRVDNFFAYTDKNNRNRIYNAILELDNNKVAK", "protein production": "failed"}
{"sequence": "MNELFDAKESLSPAEREDSLFQRLPTLIENAKANSEHYGNIFSGIDASIASNREGLAQFPITRKFNVPSQQQLKPPFGGLNSVAIGQMARVFQSPGPLYEAQTDESDFWRMGRAFHAAGFRRGDLVHNTLSYHFSPGGFIMDGGARACGCAVFPAGVGNTEAQIEAIKQLQPTGYTGTPSYLLTLLQKYQEQYGELPSFTKALVSGEAVTADMQQAFTDKGIAVFQAYASAELGLIAYQVAGEQGLVIGEDIIVEIVDPDGMPVPPGEVGEVVVTSLDEKFPLIRYATGDLSAYIENDANSPYTNMRIKGWMGRADSAVKVKGLFVYPHQIQEVCRRHEITGSLKIERDGFNDTITFCCHDVHVSAEDIQATLQSVTKLKGNVQFVANDADQPLINDLRS", "protein production": "failed"}
